{"source": "paper PMC3893231", "about": "(mAbs, 2013)", "binders": {"B1": {"name": "MBP-a1 (designed binder)", "chain": "LWDDCYFFPNPPHCYNSP"}}, "target": "T1, Ang2 (UniProt O15123 19-496)", "T1 sequence": "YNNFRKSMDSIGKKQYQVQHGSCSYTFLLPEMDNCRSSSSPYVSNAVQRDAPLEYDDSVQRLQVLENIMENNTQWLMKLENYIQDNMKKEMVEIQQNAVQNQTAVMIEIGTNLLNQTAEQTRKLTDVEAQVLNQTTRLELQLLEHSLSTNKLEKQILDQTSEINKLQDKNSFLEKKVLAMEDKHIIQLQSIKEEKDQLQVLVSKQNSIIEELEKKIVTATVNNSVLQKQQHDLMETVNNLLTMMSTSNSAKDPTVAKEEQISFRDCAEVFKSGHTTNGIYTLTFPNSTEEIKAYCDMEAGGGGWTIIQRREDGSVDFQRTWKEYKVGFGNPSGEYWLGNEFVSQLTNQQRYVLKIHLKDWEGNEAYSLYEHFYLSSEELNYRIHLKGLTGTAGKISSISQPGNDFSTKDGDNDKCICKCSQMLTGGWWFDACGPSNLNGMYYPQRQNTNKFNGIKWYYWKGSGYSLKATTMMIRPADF", "test": "SPR", "data": [{"binder": "B1", "values": [{"measurement": "Kd", "result": "22.2 ± 0.08", "unit": "nM"}]}]}
